Measurements: publication PMC12618258, “The human ribosome modulates multidomain protein biogenesis by delaying cotranslational domain docking” (Nature Structural & Molecular Biology, 2025)

Biological target: the molecule itself
Experiment: SEC-MALS; 100 μl of Ns at 0.1 or 0.2 mg/ml (~5 or 10 µM) on Superdex 200 10/30 increase GL; 20 mM HEPES pH 7.5, 100 mM KCl, 5 mM magnesium acetate, 200 mM arginine-HCl, 1 mM DTT, 2 mM sodium azide

B1: isolated Ns (isoNs, residues 1–190) of firefly luciferase (domain or fragment, UniProt P08659 1-190, looked up)
chain: MEDAKNIKKGPAPFYPLEDGTAGEQLHKAMKRYALVPGTIAFTDAHIEVNITYAEYFEMSVRLAEAMKRYGLNTNHRIVVCSENSLQFFMPVLGALFIGVAVAPANDIYNERELLNSMNISQPTVVFVSKKGLQKILNVQKKLPIIQKIIIMDSKTDYQGFQSMYTFVTSHLPPGFNEYDFVPESFDRDK
notes: firefly luciferase (FLuc, 550 residues), UniProt Q27758_PHOPY, residues 1-190 (Ns subdomain), off the ribosome; The truncations carried an N-terminal His-SUMO tag; The printed monomer mass of ~21.5 kDa fits the cleaved fragment; source: E. coli BL21, purified (HisTrap, Ulp1 cleavage, reverse IMAC, Superdex gel filtration); not shown: His, N-terminal, cleaved; SUMO, N-terminal, cleaved
- stoichiometry N: 2
